The source of these data is US20230192903A1 (published 2023).

The target in one test is T1, murine CD3 antigen (murine, UniProt P22646 22-108, limits assumed).
T1 construct: also called Mouse CD3ϵ
The experiment in a line: SPR (Biacore T200), murine CD3 antigen on CM5 chip, 1:1 fit.

Test [1] deals with T2, Human CLDN18.2 (human).
T2 construct: the cell line is named under assay; also called hCLDN18.2; human CLDN18.2 antigen
Nature of the test: flow cytometry, NUGC4-hCLDN18.2 cells. In general terms: Flow cytometry measures light scatter and fluorescence of single cells or particles in a stream.
Experimental: (§1) NUGC4 and NUGC4-hCLDN18.2 cells were cultured, digested with pancreatin and centrifuged to collect cells. The cells were collected and resuspended in buffer (PBS+1% FBS) at 1×10⁴ cells/well in a 96-well plate at 100 μL per well. Then the mixture was centrifuged at 350×g for 5 min, and the supernatant was removed.

Test [2] deals with T2, Human CLDN18.2. The experiment in a line: flow cytometry, NUGC4 cells (endogenous CLDN18.2).
Experimental: as §1
Another test concerns the target T3, human CD3 antigen (human, UniProt P07766 23-126).
T3 construct: also called Human CD3ϵ
Nature of the test: detection method the same as in Examples 2-8 (Biacore). In general terms: Surface plasmon resonance follows binding to a sensor surface in real time, without labels.

By Kd is commonly meant the equilibrium constant for the complex coming apart. For orientation: EC50 means the concentration at which the effect is half-maximal. High values mean a less potent agent, low ones a more potent agent.

T1 sequence (P22646 22-108 limits assumed): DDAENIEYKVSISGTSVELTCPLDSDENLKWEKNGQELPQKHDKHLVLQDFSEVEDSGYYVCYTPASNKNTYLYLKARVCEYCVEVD
Experimental for murine CD3 antigen: After the detection was completed, data fitting was carried out on the result pattern by adopting Biacore T200 Evaluation Software in a 1:1 binding fitting mode to obtain an equilibrium dissociation constant (KD).

B1: bispecific antibody SY1 (bispecific antibody, human IgG1, kappa)
light: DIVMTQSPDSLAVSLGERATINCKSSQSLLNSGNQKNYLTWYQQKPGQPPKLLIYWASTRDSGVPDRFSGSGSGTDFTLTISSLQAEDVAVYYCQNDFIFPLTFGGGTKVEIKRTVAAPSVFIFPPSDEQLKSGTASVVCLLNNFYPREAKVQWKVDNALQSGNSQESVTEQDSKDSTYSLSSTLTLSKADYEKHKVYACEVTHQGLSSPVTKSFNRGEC
heavy: QVQLQESGPGLVKPSETLSLTCTVSGFSLTRYGVSWIRQPPGKGLEWIGVIWGEGNTNYNPSLKSRVTISKDSSKSQVSLKLSSVTAADTAVYYCARVNFGNALDYWGQGTLVTVSSASTKGPSVFPLAPSSKSTSGGTAALGCLVKDYFPEPVTVSWNSGALTSGVHTFPAVLQSSGLYSLSSVVTVPSSSLGTQTYICNVNHKPSNTKVDKKVEPKSCDKTHTCPPCPAPPVAGPSVFLFPPKPKDTLMISRTPEVTCVVVDVSHEAPEVQFNWYVDGVEVHNAKTKPREEQFNSTFRVVSVLTVVHQDWLNGKEYKCKVSNKGLPAPIEKTISKTKGQPREPQVYTLPPCRDELTKNQVSLWCLVKGFYPSDIAVEWESNGQPENNYKTTPPVLDSDGSFFLYSKLTVDKSRWQQGNVFSCSVMHEALHNHYTQKSLSLSPGK
chain: EVQLVESGGGLVQPGKSLKLSCEASGFTFSGYGMHWVRQAPGRGLESVAYITSSSINIKYADAVKGRFTVSRDNAKNLLFLQMNILKSEDTAMYYCARFDWDKNYWGQGTMVTVSSGGGGSGGGGSGGGGSDIQMTQSPSSLPASLGDRVTINCQASQDISNYLNWYQQKPGKAPKLLIYYTNKLADGVPSRFSGSGSGRDSSFTISSLESEDIGSYYCQQYYNYPWTFGPGTKLEIKGRGRGSDKTHTCPPCPAPPVAGPSVFLFPPKPKDTLMISRTPEVTCVVVDVSHEAPEVQFNWYVDGVEVHNAKTKPREEQFNSTFRVVSVLTVVHQDWLNGKEYKCKVSNKGLPAPIEKTISKTKGQPREPQVCTLPPSRDELTKNQVSLSCAVKGFYPSDIAVEWESNGQPENNYKTTPPVLDSDGSFFLVSKLTVDKSRWQQGNVFSCSVMHEALHNHYTQKSLSLSPGK
notes: YBODY structure: anti-CLDN18.2 Fab arm (2C6.9) and single chain anti-mouse CD3 scFv (2C11)-Fc
In the test with murine CD3 antigen, B1 returned a Kd of 79.3 nM. Also, the EC50 with Human CLDN18.2 [1] worked out at 125 nM; with Human CLDN18.2 [2], 304 nM.

B2: Bispecific antibody molecule YCS4 (bispecific antibody, human IgG1, kappa)
light 1: not shown
light 2: not shown
heavy 1: QVQLQESGPGLVKPSETLSLTCTVSGFSLTRYGVSWIRQPPGKGLEWIGVIWGEGNTNYNPSLKSRVTISKDSSKSQVSLKLSSVTAADTAVYYCARVNFGNALDYWGQGTLVTVSSASTKGPSVFPLAPSSKSTSGGTAALGCLVKDYFPEPVTVSWNSGALTSGVHTFPAVLQSSGLYSLSSVVTVPSSSLGTQTYICNVNHKPSNTKVDKKVEPKSCDKTHTCPPCPAPPVAGPSVFLFPPKPKDTLMISRTPEVTCVVVDVSHEAPEVQFNWYVDGVEVHNAKTKPREEQFNSTFRVVSVLTVVHQDWLNGKEYKCKVSNKGLPAPIEKTISKTKGQPREPQVYTLPPCRDELTKNQVSLWCLVKGFYPSDIAVEWESNGQPENNYKTTPPVLDSDGSFFLYSKLTVDKSRWQQGNVFSCSVMHEALHNHYTQKSLSLSPGK
heavy 2: EVQLVESGGGLVKPGGSLRLSCAASGFSFSNSAMSWVRQAPGKGLEWVSTISSGDSYTYYADSVKGRFTISRDNAKNSLYLQMNSLRAEDTAVYYCARQGYGNALDYWGQGTLVTVSSASTKGPSVFPLAPSSKSTSGGTAALGCLVKDYFPEPVTVSWNSGALTSGVHTFPAVLQSSGLYSLSSVVTVPSSSLGTQTYICNVNHKPSNTKVDKKVEPKSCDKTHTAPAPAPAPAPAPAPAPQVQLVESGGGVVQPGRSLRLSCAASGFTFSTYAMNWVRQAPGKGLEWVARIRSKYNNYATYYADSVKDRFTISRDDSKNTLYLQMNSLRAEDTAVYYCARHGNFGNSYVSWFAYWGQGTLVTVSSGGGGSGGGGSGGGGSQTVVTQEPSLTVSPGGTVTLTCRSSTGAVTTSNYANWVQQKPGQAPRGLIGGTNKRAPGVPARFSGSLLGGKAALTLSGVQPEDEAEYYCALWYSNLWVFGGGTKVEIKGGGGSDKTHTCPPCPAPPVAGPSVFLFPPKPKDTLMISRTPEVTCVVVDVSHEAPEVQFNWYVDGVEVHNAKTKPREEQFNSTFRVVSVLTVVHQDWLNGKEYKCKVSNKGLPAPIEKTISKTKGQPREPQVCTLPPSRDELTKNQVSLSCAVKGFYPSDIAVEWESNGQPENNYKTTPPVLDSDGSFFLVSKLTVDKSRWQQGNVFSCSVMHEALHNHYTQKSLSLSPGK
notes: CS4 with the first heavy/light chain variable regions replaced by 1E9.2; order of chains: first light, second light, second heavy, first heavy
B2: the binding result with human CD3 antigen was “binds”.

B3: bispecific antibody SCS1 (bispecific antibody, human IgG1, kappa)
light: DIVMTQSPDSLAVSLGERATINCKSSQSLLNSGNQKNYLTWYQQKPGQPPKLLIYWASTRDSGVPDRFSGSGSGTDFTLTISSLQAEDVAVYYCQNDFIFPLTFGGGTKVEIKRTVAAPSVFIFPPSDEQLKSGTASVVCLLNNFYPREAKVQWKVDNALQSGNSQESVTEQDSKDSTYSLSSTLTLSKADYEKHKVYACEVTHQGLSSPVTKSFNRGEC
heavy 1: QVQLQESGPGLVKPSETLSLTCTVSGFSLTRYGVSWIRQPPGKGLEWIGVIWGEGNTNYNPSLKSRVTISKDSSKSQVSLKLSSVTAADTAVYYCARVNFGNALDYWGQGTLVTVSSASTKGPSVFPLAPSSKSTSGGTAALGCLVKDYFPEPVTVSWNSGALTSGVHTFPAVLQSSGLYSLSSVVTVPSSSLGTQTYICNVNHKPSNTKVDKKVEPKSCDKTHTCPPCPAPPVAGPSVFLFPPKPKDTLMISRTPEVTCVVVDVSHEAPEVQFNWYVDGVEVHNAKTKPREEQFNSTFRVVSVLTVVHQDWLNGKEYKCKVSNKGLPAPIEKTISKTKGQPREPQVYTLPPCRDELTKNQVSLWCLVKGFYPSDIAVEWESNGQPENNYKTTPPVLDSDGSFFLYSKLTVDKSRWQQGNVFSCSVMHEALHNHYTQKSLSLSPGK
heavy 2: QVQLQESGPGLVKPSETLSLTCTVSGFSLTRYGVSWIRQPPGKGLEWIGVIWGEGNTNYNPSLKSRVTISKDSSKSQVSLKLSSVTAADTAVYYCARVNFGNALDYWGQGTLVTVSSASTKGPSVFPLAPSSKSTSGGTAALGCLVKDYFPEPVTVSWNSGALTSGVHTFPAVLQSSGLYSLSSVVTVPSSSLGTQTYICNVNHKPSNTKVDKKVEPKSCDKTHTAPAPAPAPAPAPAPAPEVQLVESGGGLVQPGKSLKLSCEASGFTFSGYGMHWVRQAPGRGLESVAYITSSSINIKYADAVKGRFTVSRDNAKNLLFLQMNILKSEDTAMYYCARFDWDKNYWGQGTMVTVSSGGGGSGGGGSGGGGSDIQMTQSPSSLPASLGDRVTINCQASQDISNYLNWYQQKPGKAPKLLIYYTNKLADGVPSRFSGSGSGRDSSFTISSLESEDIGSYYCQQYYNYPWTFGPGTKLEIKGGGGSDKTHTCPPCPAPPVAGPSVFLFPPKPKDTLMISRTPEVTCVVVDVSHEAPEVQFNWYVDGVEVHNAKTKPREEQFNSTFRVVSVLTVVHQDWLNGKEYKCKVSNKGLPAPIEKTISKTKGQPREPQVCTLPPSRDELTKNQVSLSCAVKGFYPSDIAVEWESNGQPENNYKTTPPVLDSDGSFFLVSKLTVDKSRWQQGNVFSCSVMHEALHNHYTQKSLSLSPGK
notes: CSBODY structure: two 2C6.9 Fab arms; second heavy chain (first heavy entry) and first heavy chain with anti-mouse CD3 scFv (2C11) between CH1 and Fc2; also called SCSI
The molecule B3 came in with a dissociation constant Kd with murine CD3 antigen of 94.1 nM. The EC50 with Human CLDN18.2 [1] was 25.4 nM; with Human CLDN18.2 [2], 29.1 nM.
